Here are results for one molecule from publication PMC2120665.

This assay addresses anti-SKL-reactive polypeptides. The assay is described as follows: co-IP.

B1: Pay32p (natural protein)
chain: MSFMRGGSECSTGRNPLSQFTKHTAEDRSLQHDRVAGPSGGRVGGMRSNTGEMSQQDREMMARFGAAGPEQSSFNYEQMRHELHNMGAQGGQIPQVPSQQGAANGGQWARDFGGQQTAPGAAPQDAKNWNAEFQRGGSPAEAMQQQGPGPMQGGMGMGGMPMYGMARPMYSGMSANMAPQFQPQQANARVVELDEQNWEEQFKQMDSAVGKGKEVEEQTAETATATETVTETETTTEDKPMDIKNMDFENIWKNLQVNVLDNMDEWLEETNSPAWERDFHEYTHNRPEFADYQFEENNQFMEHPDPFKIGVELMETGGRLSEAALAFEAAVQKNTEHAEAWGRLGACQAQNEKEDPAIRALERCIKLEPGNLSALMNLSVSYTNEGYENAAYATLERWLATKYPEVVDQARNQEPRLGNEDKFQLHSRVTELFIRAAQLSPDGANIDADVQVGLGVLFYGNEEYDKAIDCFNAAIAVRPDDALLWNRLGATLANSHRSEEAIDAYYKALELRPSFVRARYNLGVSCINIGCYKEAAQYLLGALSMHKVEGVQDDVLANQSTNLYDTLKRVFLGMDRRDLVAKVGNGMDVNQFRNEFEF
Consider B1, for which the percent of Pay32p present in the complex stood at 84.6%.
